The target in data set [1] is hLysRS (full-length human lysyl-tRNA synthetase) (human, UniProt Q15046 1-597). Briefly: fluorescence anisotropy.
The target of data set [2] is hLysRSΔN65 (human lysyl-tRNA synthetase, N-terminally truncated) (human, UniProt Q15046 66-597, del1-65). Briefly: fluorescence anisotropy.
hLysRSΔN65 (human lysyl-tRNA synthetase, N-terminally truncated), sequence (Q15046 66-597, stated change not applied): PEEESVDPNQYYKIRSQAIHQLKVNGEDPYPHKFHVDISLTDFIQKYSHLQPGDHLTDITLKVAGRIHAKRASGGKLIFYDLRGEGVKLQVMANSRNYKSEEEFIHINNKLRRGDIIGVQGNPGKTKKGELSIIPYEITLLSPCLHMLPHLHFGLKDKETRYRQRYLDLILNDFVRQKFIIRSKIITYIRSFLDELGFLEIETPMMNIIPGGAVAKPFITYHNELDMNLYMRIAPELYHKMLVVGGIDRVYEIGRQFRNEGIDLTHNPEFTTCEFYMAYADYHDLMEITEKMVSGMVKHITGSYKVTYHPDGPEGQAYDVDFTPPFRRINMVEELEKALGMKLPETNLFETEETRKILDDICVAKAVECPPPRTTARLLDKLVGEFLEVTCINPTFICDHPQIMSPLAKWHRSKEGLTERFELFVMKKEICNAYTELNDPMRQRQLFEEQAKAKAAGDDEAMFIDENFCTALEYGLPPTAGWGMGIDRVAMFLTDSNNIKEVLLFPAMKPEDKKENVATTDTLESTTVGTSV

hLysRS (full-length human lysyl-tRNA synthetase), sequence (Q15046 whole entry, the tested form may be a part): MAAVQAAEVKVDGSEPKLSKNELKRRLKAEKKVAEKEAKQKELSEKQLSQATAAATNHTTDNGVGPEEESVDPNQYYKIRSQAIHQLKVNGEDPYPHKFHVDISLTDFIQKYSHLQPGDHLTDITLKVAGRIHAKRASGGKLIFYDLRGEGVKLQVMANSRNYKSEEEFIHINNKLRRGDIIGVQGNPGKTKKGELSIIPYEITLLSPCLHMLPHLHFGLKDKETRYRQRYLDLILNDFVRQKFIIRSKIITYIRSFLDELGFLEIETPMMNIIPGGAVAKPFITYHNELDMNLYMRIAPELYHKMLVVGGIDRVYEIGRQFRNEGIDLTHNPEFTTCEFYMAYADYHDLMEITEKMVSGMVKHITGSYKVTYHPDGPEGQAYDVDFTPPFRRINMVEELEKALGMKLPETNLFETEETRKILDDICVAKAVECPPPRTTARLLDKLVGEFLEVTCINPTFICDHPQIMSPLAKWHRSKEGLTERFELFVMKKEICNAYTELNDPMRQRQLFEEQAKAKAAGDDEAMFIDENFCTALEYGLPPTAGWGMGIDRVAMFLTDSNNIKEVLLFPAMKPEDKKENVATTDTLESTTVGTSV

B1: HP1 (A-rich stem-loop) (structured_RNA)
RNA: GGCGACGGUGUAAAAAUCUCGCC
In the case of B1, the binding result in data set [1] and in data set [2] was “no binding” throughout.

B2: HP2 (structured_RNA)
RNA: GGGCUUUAAAGUGAAAGCCC
Consider B2, for which the binding result in data set [2] is listed as “no binding”.

For the origin of these results see article PMC5689005.
